Assay results taken from the supplement of paper PMC10567573.

B1: CHMP4C (parent)
chain: SSKSRAAPSPQEALVRLRETEEML
B2: SLC35F2 (parent)
chain: FVAFALCMFCLYSFMPLVIKVTSA

Variants of: B1
Assay: protein stability index of a GFP-peptide fusion (GPS, HEK-293T) (PSI 1-6); higher = more stable
Conditions: c terminus: a fixed tail appended
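Further: lentivirally expressed fusions sorted by FACS into six bins by GFP to DsRed ratio, PSI derived from sequencing read proportions per bin multiplied by bin number.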

Protein stability index, by site and new letter:
L24: R 4.22 | Q 5.69 | Y 3.64 | D 5.37 | W 3.92 | M 3.11 | T 3.92 | F 4.25 | H 4.37 | I 2.52 | G 4.97 | S 4.53 | E 5.94 | N 5.32
M23: W 1.55 | Y 1.41

Variants of: B2
Assay: as above
Conditions: c terminus: a fixed tail appended

Protein stability index of substitutions, site by site:
V18: K 2.63 | A 2.91 | H 2.9 | E 2.87 | F 2.85 | G 3.68 | L 2.65 | N 3.17 | M 2.51 | P 3.36 | Q 4.26 | D 3.27 | C 3.04 | I 2.35
F9: D 3.1 | C 2.94 | A 2.62 | N 2.31 | R 3.23 | E 3.49 | W 2.68 | K 3.39 | Q 2.59 | L 2.07 | P 2.44 | G 1.76 | S 2.61 | M 3.23 | Y 2.79 | V 2.56
V2: C 2.5 | A 2.72 | L 3.45 | R 2.37 | G 3.29 | S 2.71 | D 2.14 | W 2.44 | N 3.7 | P 3.21 | K 2.97 | I 4.37 | Q 2.65 | T 4.03 | F 2.7 | E 2.27
M15: C 3.39 | Q 3.41 | L 3.33 | S 2.61 | I 3.14 | W 2.1 | P 4.92 | G 2.42 | E 2.25 | Y 3.23 | F 3.1 | D 3.13 | V 2.71 | R 2.98 | T 2.83 | K 3.67 | N 3.43 | H 2.97
L17: I 2.03 | A 2.46 | E 2.38 | H 2.77 | G 2.43 | D 2.8 | R 2.36 | T 2.34 | W 2.18 | Y 3.6 | M 3.65 | Q 3.99 | K 4.14 | F 2.35 | C 1.91 | V 3.13 | N 1.58 | P 2.71
A3: E 2.62 | W 2.55 | F 2.64 | T 2.21 | L 2.38 | R 3.31 | D 2.37 | S 2.81 | H 2.44 | C 2.05 | V 3.02 | P 1.98 | M 2.65 | K 2.42 | Y 3.12 | N 2.43 | I 2.84
C7: Q 3.11 | L 2.99 | A 2.45 | V 3.59 | P 1.95 | M 3.58 | E 2.19 | D 3.08 | R 3.23 | N 4.12 | Y 2.85 | K 2.46 | W 2.19 | S 3.35 | T 2.6 | I 2.35 | F 2.43 | H 3.27
F4: G 2.87 | Q 2.23 | Y 2.33 | T 3.63 | W 3.22 | V 3.37 | N 4.39 | R 3.58 | H 2.26 | D 4.88 | L 4.33 | K 2.01 | M 2.64 | I 2.65 | C 2.52 | A 2.54 | E 3.18 | P 4.46
S13: A 2.08 | Q 2.36 | L 3.22 | K 3.34 | E 3.17 | N 3.33 | T 2.97 | H 3.26 | P 2.15 | Y 2.33 | F 2.8 | R 3.03 | G 3.42 | V 3.39 | I 3.95 | C 2.62 | W 2.54 | M 2.54 | D 4.24
Y12: C 2.32 | M 2.75 | E 3.32 | Q 3.48 | F 2.54 | W 2.76 | A 3.98 | V 2.74 | T 2.68 | P 2.25 | R 2.29 | K 2.74 | D 1.79 | N 3.2 | G 3.85 | H 2.47 | L 2.5 | I 2.31 | S 3.08
F1: P 2.61 | Q 3.03 | C 2.46 | W 2.65 | G 3.04 | T 2.5 | D 2.71 | L 3.61 | Y 2.99 | M 2.59 | A 2.36 | N 3.06 | K 2.5 | R 4.03 | H 3.02 | V 2.51 | I 3.76 | E 3.64
F14: N 2.27 | G 3.38 | K 2.77 | M 2.52 | L 3.56 | V 3.79 | I 3.99 | T 2.91 | P 2.46 | A 2.78 | D 3.53 | Y 2.41 | W 3.16 | S 3.81 | C 2.43 | R 3.4 | H 3.63 | E 2.86 | Q 2.31
A5: K 2.58 | C 2.67 | S 3.44 | R 2.84 | P 2.62 | L 2.47 | F 1.59 | W 3.11 | M 2.38 | D 3.05 | E 2.48 | Y 2.58 | N 1.4 | H 2.52 | I 3.68 | V 2.75
P16: L 2.86 | K 2.06 | T 2.05 | G 2.85 | Y 4.47 | Q 2.65 | R 2.79 | F 2.59 | V 1.69 | N 3.51 | C 3.1 | E 1.85 | D 2.99 | A 3.6 | S 3.48 | I 2.99 | W 2.66 | M 1.92 | H 3.01
M8: L 2.67 | G 1.97 | Y 3.31 | I 2.88 | V 3.38 | R 3.49 | A 3.8 | W 3.65 | P 2.4 | C 2.4 | D 2.12 | H 2.8 | E 3.62 | S 3.3 | N 3.69 | T 2.72 | K 2.51 | F 2.67 | Q 2.57
C10: Y 2.28 | W 2.35 | M 2.88 | V 3.48 | P 2.35 | T 2.52 | E 3.49 | K 2.52 | D 3.05 | H 2.75 | L 2.43 | S 3.53 | A 2.18 | G 2.58 | F 3.07 | N 2.8 | Q 3.47 | I 2.27 | R 3.21
L6: V 2.13 | K 2.38 | E 2.43 | F 2.84 | H 3.22 | I 2.5 | G 2.14 | Y 3.21 | D 3.24 | C 2.33 | Q 3.48 | T 2.16 | N 3.13 | S 3.91 | P 2.79 | W 3.52 | A 2.8
L11: K 3.17 | F 2.21 | T 2.43 | I 3.19 | H 2.99 | Y 2.67 | A 3.07 | R 2.85 | G 2.39 | C 3.54 | S 4.04 | E 4.11 | D 3.52 | N 3.45 | W 2.44 | P 1.84 | V 3 | Q 3.66
